Laboratory results: patent publication US20180155451A1 (published 2018)

T1: FcγRIIb extracellular domain with C-terminal His tag (human, UniProt P31994 43-217)
T1 construct: extracellular domain; Soluble receptor expressed in FreeStyle293 cells; analyte in Biacore; also called FcgRIIb; 2b; not shown: His tag at the C terminus
T1 sequence (looked up): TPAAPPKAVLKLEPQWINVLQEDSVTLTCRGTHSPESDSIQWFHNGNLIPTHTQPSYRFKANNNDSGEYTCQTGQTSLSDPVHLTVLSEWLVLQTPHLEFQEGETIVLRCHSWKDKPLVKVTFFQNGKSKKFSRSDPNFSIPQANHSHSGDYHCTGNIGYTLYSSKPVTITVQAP


Tests used:
[1] = molecular target: T2, FcγRIa extracellular domain with C-terminal His tag (human, UniProt P12314 16-292); assay: SPR (Biacore); He/Con_1a divided by He/Con_2b (FcγRIIb)
T2 construct: extracellular domain; Soluble receptor expressed in FreeStyle293 cells; analyte in Biacore; also called FcgRI; FcgRIa; not shown: His tag at the C terminus
T2 sequence (P12314 16-292): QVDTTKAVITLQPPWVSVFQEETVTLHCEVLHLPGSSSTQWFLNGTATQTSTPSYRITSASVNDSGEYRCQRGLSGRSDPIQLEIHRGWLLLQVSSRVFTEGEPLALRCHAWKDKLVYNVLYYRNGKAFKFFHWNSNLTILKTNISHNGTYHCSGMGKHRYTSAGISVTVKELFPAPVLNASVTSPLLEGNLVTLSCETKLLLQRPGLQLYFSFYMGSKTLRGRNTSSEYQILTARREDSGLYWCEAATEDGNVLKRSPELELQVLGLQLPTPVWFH
Protocol: (§1) The heterodimerized antibodies He Abs in which one of the H chains was introduced with an alteration were assayed for their binding activities to each activating FcγR and inhibitory FcγR according to the method described in Example 4. […] The activating FcγRs in FIGS. 26, 27, 28, and 29 are FcγRIa, FcγRIIa (R), FcγRIIa (H), and FcγRIIIa, respectively.
(§2) Analysis of interaction between objective antibody and the FcγR was carried out using Biacore T100 (GE Healthcare). HBS-EP+ (GE Healthcare) was used as the running buffer, and the measurement temperature was set to 25° C. Chips produced by immobilizing the antigen peptide by the amine coupling method to a Series S Sencor Chip CM5 (GE Healthcare), or alternatively, chips produced by allowing preliminarily biotinylated antigen peptides to interact with and immobilize onto a Series S Sensor Chip SA (certified) (GE Healthcare) were used. Antibodies of interest were captured onto an antigen peptide-immobilized chip, and allowed to interact to each FcγR diluted with running buffer. To regenerate and repeatedly use the chip, the antibodies captured on the chip were washed off by reacting 10 mM glycine-HCl, pH 1.5.

[2] = molecular target: T1, FcγRIIb extracellular domain with …; assay: SPR (Biacore), antibody captured on antigen peptide chip, FcγR as analyte; binding relative to GpH7-A5/GpH7-B3/GpL16-k0 = 100
Protocol: as §1, §2

[3] = molecular target: T2, FcγRIa extracellular domain with …; assay: as above
Protocol: as §1, §2

| Binder | He_1a/2b (Ia/IIb) [1] | He/Con_2b (IIb binding) [2] | He/Con_1a (Ia binding) [3] |
| --- | --- | --- | --- |
| GpH7-A5/GpH7-B3 variant A330_07I/GpL16-k0 (antibody, human IgG1, kappa, He Ab: heterodimerized anti-glypican-3 IgG1, substitution in one H chain only; also called He Ab A330I) heavy 1: not shown heavy 2: not shown light: DIVMTQSPLSLPVTPGEPASISCQASESLVHSNRNTYLHWYLQKPGQSPQLLIYKVSNRFSGVPDRFSGSGSGTDFTLKISRVEAEDVGVYYCSQNTHVPPTFGQGTKVEIERTVAAPSVFIFPPSDEQLKSGTASVVCLLNNFYPREAKVQWKVDNALQSGNSQESVTEQDSKDSTYSLSSTLTLSKADYEKHKVYACEVTHQGLSSPVTKSFNRGEC | 1.57 | 67.1 % of control (control = 100) | 105 % of control (control = 100) |
| GpH7-A5/GpH7-B3 variant A330_18N/GpL16-k0 (antibody, human IgG1, kappa, He Ab: heterodimerized anti-glypican-3 IgG1, substitution in one H chain only; also called He Ab A330N) heavy 1: not shown heavy 2: not shown light: DIVMTQSPLSLPVTPGEPASISCQASESLVHSNRNTYLHWYLQKPGQSPQLLIYKVSNRFSGVPDRFSGSGSGTDFTLKISRVEAEDVGVYYCSQNTHVPPTFGQGTKVEIERTVAAPSVFIFPPSDEQLKSGTASVVCLLNNFYPREAKVQWKVDNALQSGNSQESVTEQDSKDSTYSLSSTLTLSKADYEKHKVYACEVTHQGLSSPVTKSFNRGEC | 1.67 | 63.7 % of control (control = 100) | 106 % of control (control = 100) |
| GpH7-A5/GpH7-B3 variant A330_06M/GpL16-k0 (antibody, human IgG1, kappa, He Ab: heterodimerized anti-glypican-3 IgG1, substitution in one H chain only; also called He Ab A330M) heavy 1: not shown heavy 2: not shown light: DIVMTQSPLSLPVTPGEPASISCQASESLVHSNRNTYLHWYLQKPGQSPQLLIYKVSNRFSGVPDRFSGSGSGTDFTLKISRVEAEDVGVYYCSQNTHVPPTFGQGTKVEIERTVAAPSVFIFPPSDEQLKSGTASVVCLLNNFYPREAKVQWKVDNALQSGNSQESVTEQDSKDSTYSLSSTLTLSKADYEKHKVYACEVTHQGLSSPVTKSFNRGEC | 1.3 | 80.5 % of control (control = 100) | 105 % of control (control = 100) |
| GpH7-A5/GpH7-B3 variant A330_08L/GpL16-k0 (antibody, human IgG1, kappa, He Ab: substitution in one H chain only; also called He Ab A330L) heavy 1: not shown heavy 2: not shown light: DIVMTQSPLSLPVTPGEPASISCQASESLVHSNRNTYLHWYLQKPGQSPQLLIYKVSNRFSGVPDRFSGSGSGTDFTLKISRVEAEDVGVYYCSQNTHVPPTFGQGTKVEIERTVAAPSVFIFPPSDEQLKSGTASVVCLLNNFYPREAKVQWKVDNALQSGNSQESVTEQDSKDSTYSLSSTLTLSKADYEKHKVYACEVTHQGLSSPVTKSFNRGEC | 1.52 | 70.5 % of control (control = 100) | 107 % of control (control = 100) |
| GpH7-A5/GpH7-B3 variant E333_01G/GpL16-k0 (antibody, human IgG1, kappa, He Ab: heterodimerized anti-glypican-3 IgG1, substitution in one H chain only; also called He Ab E333G) heavy 1: not shown heavy 2: not shown light: DIVMTQSPLSLPVTPGEPASISCQASESLVHSNRNTYLHWYLQKPGQSPQLLIYKVSNRFSGVPDRFSGSGSGTDFTLKISRVEAEDVGVYYCSQNTHVPPTFGQGTKVEIERTVAAPSVFIFPPSDEQLKSGTASVVCLLNNFYPREAKVQWKVDNALQSGNSQESVTEQDSKDSTYSLSSTLTLSKADYEKHKVYACEVTHQGLSSPVTKSFNRGEC | 1.26 | 81.4 % of control (control = 100) | 103 % of control (control = 100) |
| GpH7-A5/GpH7-B3 variant E333_02A/GpL16-k0 (antibody, human IgG1, kappa, He Ab: heterodimerized anti-glypican-3 IgG1, substitution in one H chain only; also called He Ab E333A) heavy 1: not shown heavy 2: not shown light: DIVMTQSPLSLPVTPGEPASISCQASESLVHSNRNTYLHWYLQKPGQSPQLLIYKVSNRFSGVPDRFSGSGSGTDFTLKISRVEAEDVGVYYCSQNTHVPPTFGQGTKVEIERTVAAPSVFIFPPSDEQLKSGTASVVCLLNNFYPREAKVQWKVDNALQSGNSQESVTEQDSKDSTYSLSSTLTLSKADYEKHKVYACEVTHQGLSSPVTKSFNRGEC | 1.23 | 83.8 % of control (control = 100) | 103 % of control (control = 100) |
| GpH7-A5/GpH7-B3 variant A330_20W/GpL16-k0 (antibody, human IgG1, kappa, He Ab: heterodimerized anti-glypican-3 IgG1, substitution in one H chain only; also called He Ab A330W) heavy 1: not shown heavy 2: not shown light: DIVMTQSPLSLPVTPGEPASISCQASESLVHSNRNTYLHWYLQKPGQSPQLLIYKVSNRFSGVPDRFSGSGSGTDFTLKISRVEAEDVGVYYCSQNTHVPPTFGQGTKVEIERTVAAPSVFIFPPSDEQLKSGTASVVCLLNNFYPREAKVQWKVDNALQSGNSQESVTEQDSKDSTYSLSSTLTLSKADYEKHKVYACEVTHQGLSSPVTKSFNRGEC | 1.41 | 76.1 % of control (control = 100) | 108 % of control (control = 100) |
| GpH7-A5/GpH7-B3 variant A330_13S/GpL16-k0 (antibody, human IgG1, kappa, He Ab: heterodimerized anti-glypican-3 IgG1, substitution in one H chain only; also called He Ab A330S) heavy 1: not shown heavy 2: not shown light: DIVMTQSPLSLPVTPGEPASISCQASESLVHSNRNTYLHWYLQKPGQSPQLLIYKVSNRFSGVPDRFSGSGSGTDFTLKISRVEAEDVGVYYCSQNTHVPPTFGQGTKVEIERTVAAPSVFIFPPSDEQLKSGTASVVCLLNNFYPREAKVQWKVDNALQSGNSQESVTEQDSKDSTYSLSSTLTLSKADYEKHKVYACEVTHQGLSSPVTKSFNRGEC | 2.22 | 41.3 % of control (control = 100) | 91.5 % of control (control = 100) |
